Experiment [1] concerns the target cynomolgus monkey IL-2Rα/CD25 subunit (cynomolgus monkey) (UniProt H6WS54). Nature of the experiment: ELISA, monovalent VHH-hFc.
The target of experiment [2] is human interleukin-2 receptor α-chain (IL-2Rα; CD25), recombinant protein (human) (UniProt P01589). Nature of the experiment: ELISA, monovalent VHH-hFc.
Experiment [3] concerns the target cynomolgus monkey IL-2Rα/CD25 subunit (cynomolgus monkey) (UniProt H6WS54). Nature of the experiment: ELISA, monovalent; EC50 cyno vs human subunit.
Experiment [4] concerns the target T1, human interleukin-2 receptor β-chain (IL-2Rβ; CD122), recombinant protein (human) (UniProt P14784).
T1 sequence: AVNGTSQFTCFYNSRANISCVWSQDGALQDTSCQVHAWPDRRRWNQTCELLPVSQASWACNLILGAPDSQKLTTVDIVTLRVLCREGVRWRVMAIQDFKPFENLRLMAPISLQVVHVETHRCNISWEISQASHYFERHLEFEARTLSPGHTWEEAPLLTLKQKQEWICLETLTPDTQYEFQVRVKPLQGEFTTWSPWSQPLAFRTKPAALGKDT
Nature of the experiment: ELISA, monovalent VHH-hFc.

The next experiment deals with T2, mouse IL-2Rβ (mouse) (UniProt P16297).
T2 sequence (looked up): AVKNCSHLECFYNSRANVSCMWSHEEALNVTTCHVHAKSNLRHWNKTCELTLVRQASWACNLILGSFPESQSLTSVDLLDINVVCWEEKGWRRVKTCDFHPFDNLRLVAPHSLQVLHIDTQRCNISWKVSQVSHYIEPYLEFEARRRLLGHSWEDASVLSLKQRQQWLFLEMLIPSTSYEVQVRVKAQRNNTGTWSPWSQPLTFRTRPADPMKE
Nature of the experiment: P.E. binding ELISA.

Sequence of cynomolgus monkey IL-2Rα/CD25 subunit (cynomolgus monkey) (H6WS54 entry or part of it): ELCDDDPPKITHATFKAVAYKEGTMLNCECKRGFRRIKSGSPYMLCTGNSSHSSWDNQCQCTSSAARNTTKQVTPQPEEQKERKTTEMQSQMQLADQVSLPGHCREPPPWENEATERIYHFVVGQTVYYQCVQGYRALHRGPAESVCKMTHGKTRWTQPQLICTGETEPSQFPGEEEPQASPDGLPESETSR
Sequence of human interleukin-2 receptor α-chain (IL-2Rα; CD25), recombinant protein (human) (P01589 22-240 limits assumed): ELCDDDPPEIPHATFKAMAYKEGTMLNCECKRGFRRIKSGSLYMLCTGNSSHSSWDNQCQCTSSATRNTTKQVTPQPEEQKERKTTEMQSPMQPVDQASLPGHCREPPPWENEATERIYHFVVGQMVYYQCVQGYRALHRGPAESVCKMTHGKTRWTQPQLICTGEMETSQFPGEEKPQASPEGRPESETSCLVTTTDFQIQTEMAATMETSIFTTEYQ

B1: 12-MP05B12 VHH-hFc, monospecific monovalent (Fc fusion, part only; not given: Both Fc arms and linker, not shown: another chain or arm of the molecule; a dimerising Fc or GST; small tags and cut ends)
VHH: QVQLVESGGGLVQAGGSLRLSCAASGFTFDGYAIGWFRQAPGKEREGVSYITGSDGSTYYADSVKGRFTISSNNAKNTVYLHMNSLKPDDAAVYYCAIDRLGSRGAYVPIWWRSSDMDLWGKGTLVTVSS
Regarding B1, the EC50 in experiment [1] was 1.1 nM; in experiment [2] it was 0.13 nM. In addition, in experiment [3], the Fold change is 8.5 fold.

B2: 15-MP02E06 VHH-hFc, monospecific monovalent (Fc fusion, part only; not given: Both Fc arms and linker, not shown: another chain or arm of the molecule; a dimerising Fc or GST; small tags and cut ends)
VHH: QVQLVESGGGSVQPGGSLRLSCAASGFTFSNYAMSWVRQAPGKGLEWVASITGFGRGTDYADSVKGRFTISRDNAEDTLYLQMNSLKPEDTAVYYCAKYSSSTYYPPTPARGRDYRGQGTQVTVSS
As for B2, the EC50 in experiment [4] was 0.64 nM.

B3: 20-MP03F10 VHH-hFc, monospecific monovalent (Fc fusion, part only; not given: Both Fc arms and linker, not shown: another chain or arm of the molecule; a dimerising Fc or GST; large carriers; small tags and cut ends)
VHH: EVQLVESGGGLVQAGGSLRLSCAASGRDFSSYAMGWFRQAPGKEREFVVAITWTKRSTDFPDSVKGRFTISRDNAKNTVYLDMNSLKPEDTAVYYCASARGLPVTPLGDIIYWGEGTLVTVSS
B3: the EC50 in experiment [4] was 0.197 nM.

B4: 20-MP03F10 VHH (periplasmic extract) (VHH)
VHH: EVQLVESGGGLVQAGGSLRLSCAASGRDFSSYAMGWFRQAPGKEREFVVAITWTKRSTDFPDSVKGRFTISRDNAKNTVYLDMNSLKPEDTAVYYCASARGLPVTPLGDIIYWGEGTLVTVSS
In the experiment with mouse IL-2Rβ (mouse), B4 gave an OD450 nm of 0.048 OD450 nm.

B5: 17-MP02C09 VHH (periplasmic extract) (VHH)
VHH: QVQLQESGGGLVQAGGSLRLSCVASGSVSSINGMAWYRQGADNQRVLVAAISRVGNTAYGDSVKGRFTISRQNARNTVYLQMNSLKPEDTAVYYCNADSWGGDDYWGQGTQVTVSS
Consider B5, for which the OD450 nm with mouse IL-2Rβ (mouse) worked out at 0.047 OD450 nm.

B6: 24-MP06E05 VHH (periplasmic extract) (VHH)
VHH: QVQLVESGGELVQGGASLRLSCAASGRTFSNANMAWFRQAPEKEREFVALITWSSGSTLYADSVKGRFTISRDNARKMVYLQMNSLKPEDTAVYYCAADGPPYSGTYYRYDTYDYWGQGTQVTVSS
As for B6, the OD450 nm with mouse IL-2Rβ (mouse) was 0.046 OD450 nm.

B7: 1-MP01H01 VHH-hFc, monospecific monovalent (Fc fusion, part only; not given: Both Fc arms and linker, not shown: another chain or arm of the molecule; a dimerising Fc or GST; small tags and cut ends)
VHH: EVQLVESGGGLVQAGGSLRLSCAASGRTFRTHNMGWFRRAPGKEREFVAAISWNVDNTLYADSVKGRFTISRDNGRNMVYLQMNSLKPEDTAVYYCAADNIPLSSDVAATATEYDYWGQGTQVTVSS
As for B7, the results for the EC50 in experiment [1] and in experiment [2] were 0.498 nM and 0.478 nM, respectively. In experiment [3], the Fold change was 1 fold.

B8: 4-MP01F04 VHH-hFc, monospecific monovalent (Fc fusion, part only; not given: Fc arms with stated mutations, not shown: another chain or arm of the molecule; a dimerising Fc or GST; small tags and cut ends)
VHH: QVQLVESGGGLVQAGGSLRLSCAASGGTFRTRNMGWFRRAPGKEREFVAAVSWNVDNKLYADSVKGRFTISRDNGRNMVYLQMNSLKPEDTAVYYCAADNIPLSSDMRPTATEYDYWGQGTQVTVSS
For B8, the EC50 in experiment [1] was found to be 0.074 nM; in experiment [2] it was 0.077 nM. The molecule further showed a Fold change in experiment [3] of 1 fold.

B9: 7-MP01G08 VHH-hFc, monospecific monovalent (Fc fusion, part only; not given: Both Fc arms and linker, not shown: another chain or arm of the molecule; a dimerising Fc or GST; small tags and cut ends)
VHH: EVQLVESGGGLVQAGGSLRLSCAASGRAFSMYNMGWFRQAPGKEREFVAATGWSGANTPYADSVKGRFTISRDNTQNTVYLQMNSLKPEDTATYYCAADSIRLRSDVTRIPLEYDYWGQGTQVTVSS
In the case of B9, the EC50 was 0.133 nM in experiment [1] and 0.173 nM in experiment [2]. The molecule also yielded a Fold change in experiment [3] of 0.8 fold.

B10: 3-MP01E03 VHH-hFc, monospecific monovalent (Fc fusion, part only; not given: Both Fc arms and linker, not shown: another chain or arm of the molecule; a dimerising Fc or GST; small tags and cut ends)
VHH: QVQLVESGGGLVQAGGSLRLSCTASGRTLSSYSMAWFRQAADKGREFVTAISSSGVVTHVLDSVKGRFTISRDNAKNTVYLQMNSLQPEDTALYFCAGTASSYSTYEANYNYWGQGTLVTVSS
As to B10, the EC50 worked out at 1.15 nM in experiment [1] and 0.086 nM in experiment [2]. The molecule also had a Fold change in experiment [3] of 13.4 fold.

B11: 9-MP05G01 VHH-hFc, monospecific monovalent (Fc fusion, part only; not given: Both Fc arms and linker, not shown: another chain or arm of the molecule; a dimerising Fc or GST; small tags and cut ends)
VHH: EVQLVESGGGLVQAGGSLRLSCAASGGSIYTYNMGWFRQAPGKEREFVAGTLWSGGDSVYADFAKGRFTLSRENAKNTLYLQMNSLKPEDTATYYCAIDPLSLTSDWRVDELSSWGKGTLVTVSS
For the molecule B11, the EC50 is 0.074 nM in experiment [1] and 0.078 nM in experiment [2]. In experiment [3], this molecule returned a Fold change of 1 fold.

B12: 10-MP05F03 VHH-hFc, monospecific monovalent (Fc fusion, part only; not given: Both Fc arms and linker, not shown: another chain or arm of the molecule; a dimerising Fc or GST; small tags and cut ends)
VHH: QVQLVESGGGLVQAGGSLRLSCAASGIPFDNYAMGWFRQAPGKEREFVAARDLEGIITRYGDSVKGRFTISRGNAKNTVFLQMNSLKPEDTAVYYCAARDGGVVAGSRSSAQYNYWGQGTQVTVSS
As for B12, the results for the EC50 in experiment [1] and in experiment [2] were 0.098 nM and 0.105 nM, respectively. Moreover, the Fold change in experiment [3] is 0.9 fold.

B13: 2-MP01A02 VHH-hFc, monospecific monovalent (Fc fusion, part only; not given: Both Fc arms and linker, not shown: another chain or arm of the molecule; a dimerising Fc or GST; small tags and cut ends)
VHH: QVQLVESGGGLVQPGGSLRLSCATSGFTFRNNFMSWVRQAPGKGLEWVSTISYGGESTTYAESVKGRFTISRDNAKNTLYLQMNNLKPEDTAVYYCAKATSYDSIRSGSRGQGTQVTVSS
Take B13: the concentration giving a half-maximal response (EC50) worked out at 0.096 nM in experiment [1] and 0.074 nM in experiment [2]. The Fold change in experiment [3] came out at 1.3 fold.

B14: 8-MP01C12 VHH-hFc, monospecific monovalent (Fc fusion, part only; not given: Both Fc arms and linker, not shown: another chain or arm of the molecule; a dimerising Fc or GST; small tags and cut ends)
VHH: QVQLVESGGGLVQPGGSLRLSCATSGFTFSNNFMSWVRQAPGKGLEFVSTISYGGESTTYAEAVKGRFTISRDNAKNTLYLQMNNLKPEDTAIYYCAKATSYTSIRGAPRGQGTQVTVSS
With B14, the values for the EC50 in experiment [1] and in experiment [2] were 0.069 nM and 0.065 nM, respectively. In experiment [3], the Fold change was 1.1 fold.

B15: 11-MP05H04 VHH-hFc, monospecific monovalent (Fc fusion, part only; not given: Both Fc arms and linker, not shown: another chain or arm of the molecule; a dimerising Fc or GST; small tags and cut ends)
VHH: QLQLVESGGGLVQAGGSLRLSCAASGLTFEGYAIGWFRQAPGKEREGVSYITGSDGTTYYINSVKGRFTISSDNAKSTVYLQMNTLKPEDTAVYYCAVDRLGSQGRYASAWWRSGDMDLWGKGTQVTVSS
With B15, the EC50 in experiment [1] came to 1.25 nM; in experiment [2] it was 0.378 nM. The Fold change in experiment [3] was 3.3 fold.

B16: 18-MP03C03 VHH-hFc, monospecific monovalent (Fc fusion, part only; not given: Both Fc arms and linker, not shown: another chain or arm of the molecule; a dimerising Fc or GST; large carriers; small tags and cut ends)
VHH: QVQLVESGGGLVQPGGSLRLSCAISGGTLDSYGIGWVRQAPGKQREGVSCMSRSDDRTYYADSVKGRFTISKDSAKNTVYLQMTSLKPEDTAVYYCAAVDAYGCSLVQPTTYDFWGLGTQVTVSS
On to B16, for which, in experiment [4], the EC50 stood at 0.373 nM.

B17: 5-MP01F05 VHH-hFc, monospecific monovalent (Fc fusion, part only; not given: Both Fc arms and linker, not shown: another chain or arm of the molecule; a dimerising Fc or GST; small tags and cut ends)
VHH: EVQLVESGGGLVQAGGSLRLSCAASIRAFTTWSMAWFRQAPGKEREYVARINVSGSVTYYADFVKGRFTISRDNAKKTMYLEMNNLKPEDTALYYCAADRTGVGTNDYNYWGQGTQVTVSS
In the case of B17, the EC50 in experiment [1] stood at 0.136 nM; in experiment [2] it was 0.088 nM. The Fold change in experiment [3] came to 1.5 fold.

B18: 19-MP03F08 VHH (periplasmic extract) (VHH)
VHH: EVQLVESGGGLVQTGGSLRLSCAASGGTFSRDAMAWFRQVPGKEREFVALISWSGATTNYADSVKGRFAISRDNGKNTVYLQMNRLKPADTAIYYCAADRRPMGSRSYFEPTEYDDWGQGTQVTVSS
Take B18: the OD450 nm in the experiment with mouse IL-2Rβ (mouse) stood at 0.049 OD450 nm.

B19: 16-MP02B08 VHH (periplasmic extract) (VHH)
VHH: EVQLVESGGGLVQAGGSLRLSCAASGRAIENYPVGWFRQAPGKEREFVAAITWISGSTLYADSVKGRFTISRDNAKNTVYLQMSSLKPEDTALYYCAAALKTITRGQNDYSYWGQGTQVTVSS
Turning to B19, the OD450 nm with mouse IL-2Rβ (mouse) was found to be 0.048 OD450 nm.

B20: 6-MP01G05 VHH-hFc, monospecific monovalent (Fc fusion, part only; not given: Both Fc arms and linker, not shown: another chain or arm of the molecule; a dimerising Fc or GST; small tags and cut ends)
VHH: QVQLQESGGGLVQAGGSLRLSCAASGRTFSSYAMGWFRQAPGKEREFVAVISWNVDNTEYTDSVKGRFTISRDNDKNMVYLQMNSLKPEDTAVYYCAADSIPLSSDMSPTATEYGYWGQGTQVTVSS
Take B20: the EC50 was 0.317 nM in experiment [1] and 0.27 nM in experiment [2]. The Fold change in experiment [3] was determined as 1.2 fold.
